Numbered stars: 1 amine (or outer) side, 2 acyl side, 3 side chain; on linkers, the order of the positions; unused ones are H or OH. Bridge positions count the residues as written; N and C are the ends. Side chains are listed from the residue outwards. Ends that are not written are not given here. * marks the point of attachment. C20 diacid = O=C(O)CCCCCCCCCCCCCCCCCCC(=O)*; γGlu = O=C(O)[C@H](CCC(=O)[*:2])N[*:1]; AEEA = NCCOCCOCC(=O)O

T1: human calcitonin receptor (human, UniProt P30988 25-474)
T1 construct: whole, on cells; also called hCTR; hCT
T1 sequence (looked up): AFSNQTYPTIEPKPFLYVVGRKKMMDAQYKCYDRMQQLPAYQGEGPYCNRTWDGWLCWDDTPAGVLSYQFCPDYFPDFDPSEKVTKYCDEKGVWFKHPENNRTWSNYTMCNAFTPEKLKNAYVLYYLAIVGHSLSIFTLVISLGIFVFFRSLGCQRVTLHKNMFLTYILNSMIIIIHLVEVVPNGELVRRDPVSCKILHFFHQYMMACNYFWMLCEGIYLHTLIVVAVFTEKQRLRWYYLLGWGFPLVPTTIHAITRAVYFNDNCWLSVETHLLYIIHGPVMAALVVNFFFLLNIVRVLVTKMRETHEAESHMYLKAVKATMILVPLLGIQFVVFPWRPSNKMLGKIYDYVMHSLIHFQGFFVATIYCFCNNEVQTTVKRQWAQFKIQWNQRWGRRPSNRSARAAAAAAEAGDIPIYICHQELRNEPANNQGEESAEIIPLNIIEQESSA

B1: N^α1-[(4S)-4-carboxy-4-(19-carboxynonadecanoylamino)butanoyl]-[Arg17,Pro21,Pro27,Pro31,Glu35]-h-amylin (peptide)
peptide: {C20 diacid-γGlu}-KCNTATCATQRLANFLRHSSPNFGAIPSSTPVGSETY-NH2
modifications: disulfide 2-7
SMILES: CC[C@H](C)[C@H](NC(=O)[C@H](C)NC(=O)CNC(=O)[C@H](Cc1ccccc1)NC(=O)[C@H](CC(N)=O)NC(=O)[C@@H]1CCCN1C(=O)[C@H](CO)NC(=O)[C@H](CO)NC(=O)[C@H](Cc1c[nH]cn1)NC(=O)[C@H](CCCNC(=N)N)NC(=O)[C@H](CC(C)C)NC(=O)[C@H](Cc1ccccc1)NC(=O)[C@H](CC(N)=O)NC(=O)[C@H](C)NC(=O)[C@H](CC(C)C)NC(=O)[C@H](CCCNC(=N)N)NC(=O)[C@H](CCC(N)=O)NC(=O)[C@@H](NC(=O)[C@H](C)NC(=O)[C@@H]1CSSC[C@H](NC(=O)[C@H](CCCCN)NC(=O)CC[C@H](NC(=O)CCCCCCCCCCCCCCCCCCC(=O)O)C(=O)O)C(=O)N[C@@H](CC(N)=O)C(=O)N[C@@H]([C@@H](C)O)C(=O)N[C@@H](C)C(=O)N[C@@H]([C@@H](C)O)C(=O)N1)[C@@H](C)O)C(=O)N1CCC[C@H]1C(=O)N[C@@H](CO)C(=O)N[C@@H](CO)C(=O)N[C@H](C(=O)N1CCC[C@H]1C(=O)N[C@H](C(=O)NCC(=O)N[C@@H](CO)C(=O)N[C@@H](CCC(=O)O)C(=O)N[C@H](C(=O)N[C@@H](Cc1ccc(O)cc1)C(N)=O)[C@@H](C)O)C(C)C)[C@@H](C)O
notes: also called compound 28
B2: N^ε1-[2-[2-[2-[[(4S)-4-carboxy-4-(19-carboxynonadecanoylamino)butanoyl]amino]ethoxy]ethoxy]acetyl]-[Arg14,Arg17,Pro21,Pro27,Pro31]-h-amylin (peptide)
peptide: K([AEEA-γGlu-C20 diacid])CNTATCATQRLARFLRHSSPNFGAIPSSTPVGSNTY-NH2
modifications: disulfide 2-7; N-terminus assumed
SMILES: CC[C@H](C)[C@H](NC(=O)[C@H](C)NC(=O)CNC(=O)[C@H](Cc1ccccc1)NC(=O)[C@H](CC(N)=O)NC(=O)[C@@H]1CCCN1C(=O)[C@H](CO)NC(=O)[C@H](CO)NC(=O)[C@H](Cc1c[nH]cn1)NC(=O)[C@H](CCCNC(=N)N)NC(=O)[C@H](CC(C)C)NC(=O)[C@H](Cc1ccccc1)NC(=O)[C@H](CCCNC(=N)N)NC(=O)[C@H](C)NC(=O)[C@H](CC(C)C)NC(=O)[C@H](CCCNC(=N)N)NC(=O)[C@H](CCC(N)=O)NC(=O)[C@@H](NC(=O)[C@H](C)NC(=O)[C@@H]1CSSC[C@H](NC(=O)[C@@H](N)CCCCNC(=O)COCCOCCNC(=O)CC[C@H](NC(=O)CCCCCCCCCCCCCCCCCCC(=O)O)C(=O)O)C(=O)N[C@@H](CC(N)=O)C(=O)N[C@@H]([C@@H](C)O)C(=O)N[C@@H](C)C(=O)N[C@@H]([C@@H](C)O)C(=O)N1)[C@@H](C)O)C(=O)N1CCC[C@H]1C(=O)N[C@@H](CO)C(=O)N[C@@H](CO)C(=O)N[C@H](C(=O)N1CCC[C@H]1C(=O)N[C@H](C(=O)NCC(=O)N[C@@H](CO)C(=O)N[C@@H](CC(N)=O)C(=O)N[C@H](C(=O)N[C@@H](Cc1ccc(O)cc1)C(N)=O)[C@@H](C)O)C(C)C)[C@@H](C)O
notes: also called compound 64
B3: N^ε1-[2-[2-[2-[[(4S)-4-carboxy-4-(19-carboxynonadecanoylamino)butanoyl]amino]ethoxy]ethoxy]acetyl]-[Ala14,Arg17,Pro21,Pro27,Pro31]-h-amylin (peptide)
peptide: K([AEEA-γGlu-C20 diacid])CNTATCATQRLAAFLRHSSPNFGAIPSSTPVGSNTY-NH2
modifications: disulfide 2-7; N-terminus assumed
SMILES: CC[C@H](C)[C@H](NC(=O)[C@H](C)NC(=O)CNC(=O)[C@H](Cc1ccccc1)NC(=O)[C@H](CC(N)=O)NC(=O)[C@@H]1CCCN1C(=O)[C@H](CO)NC(=O)[C@H](CO)NC(=O)[C@H](Cc1c[nH]cn1)NC(=O)[C@H](CCCNC(=N)N)NC(=O)[C@H](CC(C)C)NC(=O)[C@H](Cc1ccccc1)NC(=O)[C@H](C)NC(=O)[C@H](C)NC(=O)[C@H](CC(C)C)NC(=O)[C@H](CCCNC(=N)N)NC(=O)[C@H](CCC(N)=O)NC(=O)[C@@H](NC(=O)[C@H](C)NC(=O)[C@@H]1CSSC[C@H](NC(=O)[C@@H](N)CCCCNC(=O)COCCOCCNC(=O)CC[C@H](NC(=O)CCCCCCCCCCCCCCCCCCC(=O)O)C(=O)O)C(=O)N[C@@H](CC(N)=O)C(=O)N[C@@H]([C@@H](C)O)C(=O)N[C@@H](C)C(=O)N[C@@H]([C@@H](C)O)C(=O)N1)[C@@H](C)O)C(=O)N1CCC[C@H]1C(=O)N[C@@H](CO)C(=O)N[C@@H](CO)C(=O)N[C@H](C(=O)N1CCC[C@H]1C(=O)N[C@H](C(=O)NCC(=O)N[C@@H](CO)C(=O)N[C@@H](CC(N)=O)C(=O)N[C@H](C(=O)N[C@@H](Cc1ccc(O)cc1)C(N)=O)[C@@H](C)O)C(C)C)[C@@H](C)O
notes: also called compound 72
B4: N^ε1-[2-[2-[2-[[2-[2-[2-[[(4S)-4-carboxy-4-(19-carboxynonadecanoylamino)butanoyl]amino]ethoxy]ethoxy]acetyl]amino]ethoxy]ethoxy]acetyl]-[Arg17,Pro21,Pro27,Glu35 … (peptide)
peptide: K([AEEA-AEEA-γGlu-C20 diacid])CNTATCATQRLANFLRHSSPNFGAIPSSTNVGSETY-NH2
modifications: disulfide 2-7; N-terminus assumed
SMILES: CC[C@H](C)[C@H](NC(=O)[C@H](C)NC(=O)CNC(=O)[C@H](Cc1ccccc1)NC(=O)[C@H](CC(N)=O)NC(=O)[C@@H]1CCCN1C(=O)[C@H](CO)NC(=O)[C@H](CO)NC(=O)[C@H](Cc1c[nH]cn1)NC(=O)[C@H](CCCNC(=N)N)NC(=O)[C@H](CC(C)C)NC(=O)[C@H](Cc1ccccc1)NC(=O)[C@H](CC(N)=O)NC(=O)[C@H](C)NC(=O)[C@H](CC(C)C)NC(=O)[C@H](CCCNC(=N)N)NC(=O)[C@H](CCC(N)=O)NC(=O)[C@@H](NC(=O)[C@H](C)NC(=O)[C@@H]1CSSC[C@H](NC(=O)[C@@H](N)CCCCNC(=O)COCCOCCNC(=O)COCCOCCNC(=O)CC[C@H](NC(=O)CCCCCCCCCCCCCCCCCCC(=O)O)C(=O)O)C(=O)N[C@@H](CC(N)=O)C(=O)N[C@@H]([C@@H](C)O)C(=O)N[C@@H](C)C(=O)N[C@@H]([C@@H](C)O)C(=O)N1)[C@@H](C)O)C(=O)N1CCC[C@H]1C(=O)N[C@@H](CO)C(=O)N[C@@H](CO)C(=O)N[C@H](C(=O)N[C@@H](CC(N)=O)C(=O)N[C@H](C(=O)NCC(=O)N[C@@H](CO)C(=O)N[C@@H](CCC(=O)O)C(=O)N[C@H](C(=O)N[C@@H](Cc1ccc(O)cc1)C(N)=O)[C@@H](C)O)C(C)C)[C@@H](C)O
notes: also called compound 25
B5: N^α1-[(4S)-4-carboxy-4-(19-carboxynonadecanoylamino)butanoyl]-[His14,Arg17,Pro21,Pro27,Glu35]-h-amylin (peptide)
peptide: {C20 diacid-γGlu}-KCNTATCATQRLAHFLRHSSPNFGAIPSSTNVGSETY-NH2
modifications: disulfide 2-7
SMILES: CC[C@H](C)[C@H](NC(=O)[C@H](C)NC(=O)CNC(=O)[C@H](Cc1ccccc1)NC(=O)[C@H](CC(N)=O)NC(=O)[C@@H]1CCCN1C(=O)[C@H](CO)NC(=O)[C@H](CO)NC(=O)[C@H](Cc1c[nH]cn1)NC(=O)[C@H](CCCNC(=N)N)NC(=O)[C@H](CC(C)C)NC(=O)[C@H](Cc1ccccc1)NC(=O)[C@H](Cc1c[nH]cn1)NC(=O)[C@H](C)NC(=O)[C@H](CC(C)C)NC(=O)[C@H](CCCNC(=N)N)NC(=O)[C@H](CCC(N)=O)NC(=O)[C@@H](NC(=O)[C@H](C)NC(=O)[C@@H]1CSSC[C@H](NC(=O)[C@H](CCCCN)NC(=O)CC[C@H](NC(=O)CCCCCCCCCCCCCCCCCCC(=O)O)C(=O)O)C(=O)N[C@@H](CC(N)=O)C(=O)N[C@@H]([C@@H](C)O)C(=O)N[C@@H](C)C(=O)N[C@@H]([C@@H](C)O)C(=O)N1)[C@@H](C)O)C(=O)N1CCC[C@H]1C(=O)N[C@@H](CO)C(=O)N[C@@H](CO)C(=O)N[C@H](C(=O)N[C@@H](CC(N)=O)C(=O)N[C@H](C(=O)NCC(=O)N[C@@H](CO)C(=O)N[C@@H](CCC(=O)O)C(=O)N[C@H](C(=O)N[C@@H](Cc1ccc(O)cc1)C(N)=O)[C@@H](C)O)C(C)C)[C@@H](C)O
notes: also called compound 30
B6: N^ε1-[2-[2-[2-[[(4S)-4-carboxy-4-(19-carboxynonadecanoylamino)butanoyl]amino]ethoxy]ethoxy]acetyl]-[Arg17,Pro21,Pro27,Glu35]-h-amylin (peptide)
peptide: K([AEEA-γGlu-C20 diacid])CNTATCATQRLANFLRHSSPNFGAIPSSTNVGSETY-NH2
modifications: disulfide 2-7; N-terminus assumed
SMILES: CC[C@H](C)[C@H](NC(=O)[C@H](C)NC(=O)CNC(=O)[C@H](Cc1ccccc1)NC(=O)[C@H](CC(N)=O)NC(=O)[C@@H]1CCCN1C(=O)[C@H](CO)NC(=O)[C@H](CO)NC(=O)[C@H](Cc1c[nH]cn1)NC(=O)[C@H](CCCNC(=N)N)NC(=O)[C@H](CC(C)C)NC(=O)[C@H](Cc1ccccc1)NC(=O)[C@H](CC(N)=O)NC(=O)[C@H](C)NC(=O)[C@H](CC(C)C)NC(=O)[C@H](CCCNC(=N)N)NC(=O)[C@H](CCC(N)=O)NC(=O)[C@@H](NC(=O)[C@H](C)NC(=O)[C@@H]1CSSC[C@H](NC(=O)[C@@H](N)CCCCNC(=O)COCCOCCNC(=O)CC[C@H](NC(=O)CCCCCCCCCCCCCCCCCCC(=O)O)C(=O)O)C(=O)N[C@@H](CC(N)=O)C(=O)N[C@@H]([C@@H](C)O)C(=O)N[C@@H](C)C(=O)N[C@@H]([C@@H](C)O)C(=O)N1)[C@@H](C)O)C(=O)N1CCC[C@H]1C(=O)N[C@@H](CO)C(=O)N[C@@H](CO)C(=O)N[C@H](C(=O)N[C@@H](CC(N)=O)C(=O)N[C@H](C(=O)NCC(=O)N[C@@H](CO)C(=O)N[C@@H](CCC(=O)O)C(=O)N[C@H](C(=O)N[C@@H](Cc1ccc(O)cc1)C(N)=O)[C@@H](C)O)C(C)C)[C@@H](C)O
notes: also called compound 26

The target of the experiment is T1, human calcitonin receptor. The experiment is described as follows: SPA competition with 125I-calcitonin, membranes of BHK hCTR cells (Assay VII). On the procedure: Membranes were prepared in the following way; the cells were rinsed with PBS and incubated with Versene for approximately 5 min before harvesting. The cells were flushed with PBS and the cell-suspension was centrifuged for 5 min at 1000 rpm. Cells were homogenized (Ultrathurrax) in a buffer containing 20 mM Na-HEPES and 10 mM EDTA (pH 7.4) and centrifuged at 20.000 rpm for 15 min. The resulting pellet was resuspended, homogenized and centrifuged (20.000 rpm, 15 min) in a buffer containing 20 mM Na-HEPES and 0.1 mM EDTA (pH 7.4, buffer 2). The resulting pellet was resuspended in buffer 2 and protein concentration was measured (BCA protein Assay, Pierce). The homogenate was kept cold during the whole procedure. The membranes were kept at −80° C. until use. Assay was performed in a 384 well Optiplate (PerkinElmer) in a total volume of 40 ul. Membranes were mixed with SPA beads. Final concentration of membranes 35 ng/μL final and Final concentration of SPA beads was 0.05 mg/well. Test-compounds were dissolved in DMSO and further diluted in assay buffer (50 mM Hepes, pH 7.4, 1 mM CaCl2, 5 mM MgCl₂, 0.1% OA and 0.02% Tween20). […] The final mixture was incubated for 120 min with shaking at 400 rpm at 25° C. prior to centrifugation (1500 rpm, 10 min). Samples were analyzed on TopCounter™ (Packard). The […] was calculated using (one site binding competition analysis) GraphPad Prism5 as a measure of receptor affinity.
One may read the IC50 as the concentration needed to halve the response being measured. Take B1: the IC50 was found to be 12.5 nM.

Take B2: the IC50 worked out at 56 nM.

Consider B3, for which the IC50 amounted to 42.4 nM.

Take B4: the IC50 is 43.4 nM.

In the case of B5, the IC50 stood at 21.6 nM.

Turning to B6, the IC50 is 25.3 nM.
